Measured values: article PMC12226076, “Structural insights and rational design of Pseudomonasputida KT2440 omega transaminases for enhanced biotransformation of (R)-PAC to (1R, 2S)-Norephedrine” (The Journal of Biological Chemistry, 2025)

biological target: T1, TA_2799 (Pseudomonas putida, UniProt Q88J50); test: X-ray crystal structure, […] Å; type: binding; conditions: covalent; internal aldimine with catalytic K286
T1 construct: gene PP_2799; pET43.1b, 6xHis tag, expressed in E. coli BL21 (DE3), Ni-NTA; homodimer; catalytic K286

Row | Compound | X-ray crystal structure, 1.76 Å
1 | Cc1ncc(COP(=O)(O)O)c(C=O)c1O [PLP] | covalently bound internal aldimine form of the PLP bound to the catalytic K286 residue

system: C[C@H](N)c1ccccc1; test: purified protein; type: biochemical, Pseudomonas putida; conditions: 20 mM pyruvate, 2 mM PLP, 50 mM HEPES pH 8.0, 30 °C, (S)-MBA 0-5 mM

Row | Compound | Km [µM] | Vmax [µmol/min/mg] | kcat [s⁻¹] | kcat/Km [M⁻¹ s⁻¹]
2 | TA_5182 (Pseudomonas putida KT2440; G119N) | 347 ± 24 | 0.003 | 0.00245 ± 3.33e-05 | 7.05
3 | TA_2799 (Pseudomonas putida KT2440; L322F) | 1068 ± 566 | 0.042 | 0.0296 ± 0.0006 | 27.7
4 | TA_2799 (Pseudomonas putida KT2440; C324Y/L322F) | 1188 ± 122 | – | 0.02302 ± 0.000817 | –
5 | TA_5182 (Pseudomonas putida KT2440) | 1089 ± 117 | 0.007 | 0.0049 ± 0.000117 | 4.48
6 | TA_2799 (Pseudomonas putida KT2440) | 6459 ± 621 | 0.104 | 0.072 ± 0.00465 | 11.1
